The target of one assay is GST-Miro1 WT (UniProt Q8IXI2). Briefly: pull-down; as a5 but at 5 uM [Ca2+]free; band normalised to the level in 0 Ca2+.
The next assay has as its target GST-Miro1 ΔEF (UniProt Q8IXI2). The description is as above.

One substance from paper PMC2670979 can be followed below.

KIF5 motors (endogenous, detected using a pan-KIF5 antibody), sequence (Q2PQA9 whole entry): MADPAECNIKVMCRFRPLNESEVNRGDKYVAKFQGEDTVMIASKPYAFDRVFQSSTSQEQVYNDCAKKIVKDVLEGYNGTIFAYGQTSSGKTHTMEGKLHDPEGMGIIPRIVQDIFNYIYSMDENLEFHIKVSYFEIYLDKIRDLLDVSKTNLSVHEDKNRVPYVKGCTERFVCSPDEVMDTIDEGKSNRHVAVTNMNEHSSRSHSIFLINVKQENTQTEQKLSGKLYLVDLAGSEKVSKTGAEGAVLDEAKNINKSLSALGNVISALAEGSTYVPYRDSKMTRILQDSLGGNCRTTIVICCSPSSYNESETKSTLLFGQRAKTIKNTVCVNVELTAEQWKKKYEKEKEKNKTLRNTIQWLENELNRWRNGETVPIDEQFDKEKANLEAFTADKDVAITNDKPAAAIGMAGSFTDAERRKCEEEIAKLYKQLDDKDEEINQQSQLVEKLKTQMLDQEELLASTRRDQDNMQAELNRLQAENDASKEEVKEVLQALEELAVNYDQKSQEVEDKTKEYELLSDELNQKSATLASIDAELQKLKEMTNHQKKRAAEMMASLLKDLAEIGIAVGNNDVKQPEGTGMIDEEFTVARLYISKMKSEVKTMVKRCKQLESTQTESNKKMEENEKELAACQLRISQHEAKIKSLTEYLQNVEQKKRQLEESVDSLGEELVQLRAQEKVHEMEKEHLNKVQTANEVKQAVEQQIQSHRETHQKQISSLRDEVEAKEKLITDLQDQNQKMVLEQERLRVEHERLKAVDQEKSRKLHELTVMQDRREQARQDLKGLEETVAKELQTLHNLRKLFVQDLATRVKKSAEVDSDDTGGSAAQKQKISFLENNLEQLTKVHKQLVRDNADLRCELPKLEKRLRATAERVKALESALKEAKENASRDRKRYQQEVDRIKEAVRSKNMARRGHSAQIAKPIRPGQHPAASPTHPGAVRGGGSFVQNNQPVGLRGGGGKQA
GST-Miro1 WT, sequence (Q8IXI2 whole entry): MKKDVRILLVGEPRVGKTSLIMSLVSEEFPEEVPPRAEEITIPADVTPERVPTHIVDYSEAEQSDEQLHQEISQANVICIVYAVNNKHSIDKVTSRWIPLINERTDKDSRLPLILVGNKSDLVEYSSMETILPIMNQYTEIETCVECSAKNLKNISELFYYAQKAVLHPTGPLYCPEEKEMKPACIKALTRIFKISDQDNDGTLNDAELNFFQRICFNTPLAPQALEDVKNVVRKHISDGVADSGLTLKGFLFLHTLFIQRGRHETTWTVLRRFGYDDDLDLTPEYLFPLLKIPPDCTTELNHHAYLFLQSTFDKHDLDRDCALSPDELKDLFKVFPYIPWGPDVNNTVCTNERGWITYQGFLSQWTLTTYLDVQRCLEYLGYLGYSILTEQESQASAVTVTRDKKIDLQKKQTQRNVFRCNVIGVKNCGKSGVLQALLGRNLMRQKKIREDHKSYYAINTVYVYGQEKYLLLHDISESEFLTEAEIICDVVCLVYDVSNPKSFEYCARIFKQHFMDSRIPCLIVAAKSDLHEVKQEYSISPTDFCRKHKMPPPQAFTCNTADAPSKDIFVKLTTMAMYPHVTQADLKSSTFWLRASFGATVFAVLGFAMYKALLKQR
GST-Miro1 ΔEF, sequence (Q8IXI2 whole entry E208K/E328K): as the sequence (Q8IXI2 whole entry) above, with E208K, E328K counted along it

The substance “KIF5 motors (endogenous, detected using a pan-KIF5 antibody) (from UniProt Q2PQA9 1-963) (natural protein)” displayed a percent of the level in 0 [Ca2+], at 5 uM [Ca2+]free with GST-Miro1 WT of 15%. This substance also yielded a percent of the level in 0 [Ca2+], at 5 uM [Ca2+] with GST-Miro1 ΔEF of 87%.
